# Molecular target: T1, recombinant human sortilin (Homo sapiens, UniProt Q99523)
# T1 sequence (Q99523 78-755 limits assumed): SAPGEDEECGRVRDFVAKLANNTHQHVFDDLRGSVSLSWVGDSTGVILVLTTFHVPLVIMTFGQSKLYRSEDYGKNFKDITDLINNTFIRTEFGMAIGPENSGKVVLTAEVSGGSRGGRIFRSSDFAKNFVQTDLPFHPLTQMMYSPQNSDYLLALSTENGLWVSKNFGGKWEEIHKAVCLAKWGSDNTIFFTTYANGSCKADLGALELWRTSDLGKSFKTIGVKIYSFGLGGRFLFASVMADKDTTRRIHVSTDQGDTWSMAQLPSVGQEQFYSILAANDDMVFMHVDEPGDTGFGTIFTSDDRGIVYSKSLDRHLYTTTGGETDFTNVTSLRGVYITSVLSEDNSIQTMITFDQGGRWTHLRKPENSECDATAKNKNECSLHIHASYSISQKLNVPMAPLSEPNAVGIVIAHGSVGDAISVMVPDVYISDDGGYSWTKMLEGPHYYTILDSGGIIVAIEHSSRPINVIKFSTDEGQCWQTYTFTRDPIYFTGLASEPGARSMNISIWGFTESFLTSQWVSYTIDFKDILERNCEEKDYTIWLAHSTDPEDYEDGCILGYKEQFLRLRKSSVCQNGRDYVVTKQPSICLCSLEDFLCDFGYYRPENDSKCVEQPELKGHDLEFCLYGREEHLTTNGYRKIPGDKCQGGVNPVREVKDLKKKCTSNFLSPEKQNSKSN
# Assay: Surface plasmon resonance analysis of ApoB binding to immobilized sortilin
# Settings: ApoB 10, 20, 50 nM, on and off rates recorded, displayed experiment
# Protocol: FIG. 5b: Characterization of ApoB binding to recombinant human sortilin (30). Sortilin was immobilized on a BIAcore CM5 sensorchip at a density of […]. A) After baseline calibration in running buffer (10 mM Hepes, 150 mM NaCl, 1 mM EGTA, 1.5 mM CaCl2, 0.005% P20, pH 7.4) 10 μg/ml rabbit anti-sortilin IgG (12) or running buffer alone was applied to the chip. At t=700 sec the response units obtained in the presence of anti-sortilin IgG was arbitrarily set at 100 and 50 nM ApoB was applied to the flow cell pre-incubated with antibody or with buffer alone. Association of ApoB binding was measured until 1200 sec, after which the solute was changed to buffer to allow dissociation. […]
# Determination of direct binding of ligand to immobilized protein can be performed by e.g. surface plasmon resonance analysis (Biacore, Sweden) using CaHBS as standard running buffer (10 mM HEPES, pH 7.4, 140 mM NaCl, 2 mM CaCl2, 1 mM EGTA, and 0.005% Tween-20). […] In another approach, inhibition of an established ligand can be monitored in the absence or presence of putative inhibitors. […] The data collected are analysed by fitting of sensorgrams for affinity estimations and inhibitory potential using the Biaevaluation version 3.1 program. We evaluated the binding properties of ApoB to sortilin (FIG. 5b). […]
substance,measurement,value
"ApoB: apolipoprotein B, the part of LDL that binds to the LDL receptor; tested as sortilin ligand",Kd,0.4 nM
